From US10208121B2, “Anti-Axl antagonistic antibodies” (BERGEN TEKNOLOGIOVERFORING AS, priority 2014, dated 2019)
Each block holds one molecule with its values, some of them ahead of it.

Assays:
[1] = target: T1, Mer (rhMer-Fc chimera) (Homo sapiens, UniProt Q12866); assay: Biacore binding analysis on immobilized human Mer; settings: 10 μg/mL, 25° C.
T1 construct: Soluble recombinant antigens corresponding to the extracellular domains of members of the human TAM receptor family; purchased R&D Systems 891-MR
T1 sequence (Q12866 21-505 limits assumed): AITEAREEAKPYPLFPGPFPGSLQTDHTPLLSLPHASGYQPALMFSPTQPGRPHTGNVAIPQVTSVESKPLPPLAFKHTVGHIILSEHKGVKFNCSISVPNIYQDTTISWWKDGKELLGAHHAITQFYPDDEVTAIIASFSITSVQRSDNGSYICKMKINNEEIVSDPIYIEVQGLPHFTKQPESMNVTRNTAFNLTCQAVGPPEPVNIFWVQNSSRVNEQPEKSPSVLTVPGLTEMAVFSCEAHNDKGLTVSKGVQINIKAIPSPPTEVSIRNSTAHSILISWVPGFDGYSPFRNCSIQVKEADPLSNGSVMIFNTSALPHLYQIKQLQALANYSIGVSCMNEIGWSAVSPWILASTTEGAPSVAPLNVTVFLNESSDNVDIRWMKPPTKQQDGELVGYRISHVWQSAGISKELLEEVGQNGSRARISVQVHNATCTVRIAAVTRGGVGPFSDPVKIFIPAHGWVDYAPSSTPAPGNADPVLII
Protocol: (§1) All binding experiments were performed using Biacore 3000 instrument (GE Healthcare) at 25° C. Soluble recombinant antigens corresponding to the extracellular domains of members of the human TAM receptor family, Axl (rhAxl-Fc chimera; R&D Systems, Cat. no. 154-AL), Mer (rhMer-Fc chimera; R&D Systems, Cat. no. 891-MR) and Tyro3 (rhTyro3/Dtk-Fc chimera; R&D Systems, Cat. no. 859-DK) were immobilized on the surface of CM5 sensor chip using amine coupling at the surface density of 393.0, 303.6 and 364.0 resonance units (RU), respectively. The Biacore run was performed in an automatic mode using Binding analysis wizard. Samples containing either MAb 10C9 or MAb 10G5 at concentration 10 μg/mL in HBS-EP buffer (GE Healthcare) were injected over the surfaces with immobilized antigens at flow rate of 30 μL/min for 3 min (association) followed by 5 min dissociation.

[2] = target: T2, human Tyro3 (rhTyro3/Dtk-Fc chimera) (Homo sapiens, UniProt Q06418); assay: Biacore binding analysis on immobilized human Tyro3; settings: 10 μg/mL, 25° C.
T2 construct: Soluble recombinant antigens corresponding to the extracellular domains of members of the human TAM receptor family; purchased R&D Systems 859-DK
T2 sequence (Q06418 41-429 limits assumed): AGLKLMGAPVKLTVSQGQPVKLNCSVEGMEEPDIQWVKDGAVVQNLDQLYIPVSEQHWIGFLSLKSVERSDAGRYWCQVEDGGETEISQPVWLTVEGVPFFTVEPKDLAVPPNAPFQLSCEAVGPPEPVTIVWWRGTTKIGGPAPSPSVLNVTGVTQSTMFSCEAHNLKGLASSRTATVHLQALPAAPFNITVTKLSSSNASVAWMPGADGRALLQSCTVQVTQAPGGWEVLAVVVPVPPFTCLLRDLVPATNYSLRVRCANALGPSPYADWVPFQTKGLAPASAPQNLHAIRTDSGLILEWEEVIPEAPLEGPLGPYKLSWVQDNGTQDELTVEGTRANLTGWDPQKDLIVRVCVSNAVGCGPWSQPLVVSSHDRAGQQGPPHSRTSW
Protocol: as §1
The binding experiments were performed using Biacore 3000 instrument (GE Healthcare) at 25° C. The soluble recombinant antigens corresponding to human Axl (rhAxl-Fc chimera; R&D Systems, Cat. no. 154-AL), mouse Axl (rmAxl-Fc chimera; R&D Systems, R&D Systems; Cat. no. 854-AX) and human Tyro3 (rhTyro3/Dtk-Fc chimera; R&D Systems, Cat. no. 859-DK) were immobilized on the surface of CM5 sensor chip using amine coupling at the surface density of 1,308.0, 2,115.9 and 1,429.0 RU, respectively. The Biacore runs were performed in an automatic mode using Binding analysis wizard.
The sample containing either MAb 10C9, MAb 10G5 or recombinant mouse (rm) Axl-ligand Gas6 (R&D Systems, Cat. no. 986-GS/CF) at concentration 10 μg/mL in HBS-EP buffer (GE Healthcare) was injected over the surfaces with immobilized antigens at flow rate of 30 μL/min for 3 min (association) followed by 5 min dissociation.

[3] = tested on: MDA-MB-231; assay: Growth of MDA-MB-231 cells in three-dimensional (3D) organotypic model; assay type: cell-based, human; settings: for growth and tumour mass development in extracellular matrix: MDA-MB-231, 50-100 μg/mL, day 6, versus control irrelevant IgG
Protocol: A highly aggressive triple-negative human breast cancer cell line MDA-MB-231 (ATCC® HTB-26™) was cultured according to recommended conditions in Dulbecco's Modified Eagle's Medium/Nutrient Mixture F-12 Ham medium supplemented with 10% foetal bovine serum (FBS), glutamine and penicillin and streptomycin. The cells were pre-treated in suspension for at least 1 hour at 37° C., to ensure proper binding of antibodies on the cell surface before they were placed in extracellular matrix. The cells cultures were observed every day and fresh treatments were done every other day. The antibodies were used at concentrations 50-100 μg/mL. Imaging of coverslip 3D assay (35 mm dish) was done on a NIKON light microscopy using both Phase contrast and Hoffman optics. Already at day 3, difference in growth of cells treated with either MAb 10C9 or MAb10G5 and cells treated with a control irrelevant IgG was observed.

[4] = tested on: Axl-positive breast cancer cell line MDA-MB-231; assay: Flow cytometry binding to Axl-positive MDA-MB-231 cells; assay type: cell-based, human; settings: different antibody concentrations, MFI
Protocol: Different concentrations of mouse and chimeric antibodies were tested in flow cytometry for binding to triple-negative breast cancer cell line MDA-MB-231. The bound mouse and chimeric antibodies were detected with APC-conjugated donkey F(ab′)2 fragments specific for either mouse IgG (H+L), 1:500 dilution, or human IgG (H+L), 1:300 dilution, respectively (both from Jackson ImmunoResearch). The cell staining was measured using Accuri C6 flow cytometer (BD Biosciences). MFI, geometric mean fluorescence intensity.
The purified chimeric antibodies (>95% purity) were analysed for binding to Axl-positive breast cancer cell line MDA-MB-231 in flow cytometry. For comparison, the parental mouse MAbs 10C9 and 10G5 were used. For flow cytometry, the adherent cells in culture were washed with PBS, detached by treatment with trypsin (0.25%) for 1 min and hitting culture dish for full detachment. Trypsin was quenched by adding into the tissue flask the complete medium followed by washing the cells with PBS. During the washing steps, the cells were collected by centrifugation at 200 g for 5 min. The antibody was diluted for total concentration in PBS containing 0.02% bovine serum albumin (BSA). Cell staining was performed using 200 μL of cell suspension comprising 10^5 cells for 20 min at room temperature. The cell-bound antibodies were detected with APC-conjugated donkey anti-human or anti-mouse, respectively, IgG (H+L) F(ab′)2 fragments (Jackson ImmunoResearch). After two washing steps with PBS/0.02% BSA, the cells were resuspended in 200 μL and kept on ice before analysis on Accuri C6 flow cytometer (BD Biosciences).

binding to human Mer [1]: no significant binding
binding to human Tyro3 [2]: no significant binding
B1: 10G5: mouse anti-Axl monoclonal antibody from hybridoma WR-10G5-E5, IgG1; VH SEQ ID NO: 21, VL SEQ ID NO: 22 (antibody, listed as Mus musculus, V domains shown)
VH: QVQLQQSGAELVRPGASVKLSCKASGYSFTDFYINWVRQRPGQGLEWIARIFPGGDNTYYNEKFKGKATLTAEESSSTAYIQLSSLTSEDSAVYFCARRGLYYAMDYWGQGISVTVSS
VL: DVLMTQTPLSLPVSLGDQASISCRSSQSLVHSNGIPYLHWYLQKPGQSPKLLIYRVSNRFSGVPDRFSGSGSGTDFTLKISRVEAEDLGVYFCSQGTHVPPTFGGGTKLEIK
viability of treated cells (nuclei staining) ([3]; MDA-MB-231 3D culture): still viable
growth and tumour mass development in extracellular matrix [3]: significantly inhibited growth and tumour mass development

B2: c10G5: chimeric (mouse variable/human constant) IgG1 variant of antibody 10G5 (antibody)
heavy: B1 VH
light: B1 VL
modifications: left off: a dimerising Fc or GST
notes: chimeric (mouse variable/human constant) IgG1 variant of antibody 10G5
binding to MDA-MB-231 cells in flow cytometry [4]: Dose-dependent binding

binding to human Mer [1]: no binding
binding to human Mer ([1]; listed as 1009): no significant binding
binding to human Tyro3 [2]: no binding
binding to human Tyro3 ([2]; listed as 1009): no significant binding
B3: 10C9: mouse anti-Axl monoclonal antibody from hybridoma UT-10C9-B9, IgG2b; VH SEQ ID NO: 3, VL SEQ ID NO: 4 (antibody, listed as Mus musculus, V domains shown)
VH: QVQLQQPGPELVKPGASVKISCKTSDYNFTRYYIHWVKQRPGQGLEWIGWIYPGTGDSKYNEKFKGRATLTADTSSSTAYMQLSSQTSEDSAVYFCARNGNYWYFDVWGAGTAVTVSS
VL: DIVMTQAAPSGPVTPGESVSISCRSSKSLLHSNGNTYLYWFLQRPGQSPQLLIYRMSNLASGVPDRFSGSGSGTAFTLRISRVEAEDVGIYYCMQHREYPFTFGGGTKLEIK
growth and tumour mass development in extracellular matrix [3]: significantly inhibited growth and tumour mass development
binding to MDA-MB-231 cells in flow cytometry [4]: Dose-dependent binding
